From the nanobody polyreactivity screen of Harvey et al. (2022)

assay: yeast display, Sf9 membrane polyspecificity reagent, FACS + sequencing; frameworks hold sequencing errors
Outline: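 In a synthetic yeast display library (Saccharomyces cerevisiae BJ5465), nanobody expression was induced with galactose for 36–48 hours. FACS gates were set low and high (top ~1%) using anti-HA fluorescence for expression and streptavidin fluorescence for binding of the Sf9 membrane reagent. Each polyreactivity label is drawn from the gate of origin.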

Sequence	polyreactivity (PSR sort gate)
QVQLVESGGGLVQAGGSLRLSCAASGSTIGAYAMGWYRPAPGKERELVAAISRRGGSTYYADSVKGRFTISRDNAKNTVYLQMNSLKPEDSAVYYCNAVGTRVDGEHYYWGQGTQVTVSS	high polyreactivity
QVQLVESGGGLVQAGGSLRLSCAASGSTIGFYAMGWYRQAPGKERELVAVISSGDSTYYADSVKGRFTISRDNAKNTVYLQMNSLKPEDTAVYYCAKDALVIDGGGGYDYWGQGTQVTVSS	low polyreactivity
QVQLVESGGGLVQAGGSLRLSCAASGSTIGLNARGWYRQAPGKERELVAAITRSDITNYADSVKGRFTISRDNAKNTVYLQMNRLKPEDTEVYYCAAESPLYWVDDFESGWRYYYSGQGTQVTVSS	low polyreactivity
QVQLVESGGGLVQAGGSLRLSCAASGSTIGRYAMGWYRQAPGKERELVAAISSSGDRTYYADSVKGRFTISRDNAKNTVYLQMNSLKPEDTAVYYCNSRRLFSGYDYWGQGTQVTVSS	high polyreactivity
QVQLVESGGGLVQAGGSLRLSCAASGSTIGWNAMGWYRQAPRKERELVAAISSSGGITYYADSVKGRYTISRDTAKNTVYLQMNSLKPDDTAVYDCAAEGDDDWVNYWGHGTQVTVSS	low polyreactivity
QVQLVESGGGLVQAGGSLRLSCAASGSTIGYYAMGWYRPAPGKERELVAAISWSGGSTYYADSVKGRFTISRDTAKNTVYFQMNSLKPEDTAGYYCAADTYPDYYLVEYYYWGQGTQVTVSS	low polyreactivity
QVQLVESGGGLVQAGGSLRLSCAASGSTIGYYARGWSRQAPGKERELVARIRSTGVSTFYADSVKGRFTISRDNAKNTVYLQMNSLKPEDTAVYYCAAPVSSLGWKHRQYTTWYEYWGQGTQVTVSS	high polyreactivity
QVQLVESGGGLVQAGGSLRLSCAASGSTIINYAMGWYRQAPGKERELVAVITSDDGSTYYADSVKGRFTISRDNAKNTVYLQMNSLKPEDTAVYYCAADYYDQRYRPGPWYDYWGQGSQVTVSS	low polyreactivity
QVQLVESGGGLVQAGGSLRLSCAASGSTIIYYAMGWYRQAPGKESELVATISTSGTSTYYADSVKGRFTISRDNAKNTVYLQMNSLKPEDTAVYYCNAVHRNWRQKFDYWGQGTQVTVSS	high polyreactivity
QVQLVESGGGLVQAGGSLRLSCAASGSTINYYAMGWYIQAPGKERELVARITWSGARTYYADSVKGRFTISRDNAKNTVYLQMNSLKPEDTAVYYCAAGYLALESPWYYRWYDYWGQGTQVTVSS	low polyreactivity
QVQLVESGGGLVQAGGSLRLSCAASGSTIQLYAMGWYRQAPGKERELVAAITSSAGRTYYADSVKGRFTISRDNAKNTVYLQMNSLKPEDTAVYYCAKDGSFTFWGQGTQVTVSS	low polyreactivity
QVQLVESGGGLVQAGGSLRLSCAASGSTIRAYGMGWYRQAPGKERELVAAISYSGDSTYYADSVKGRFTISRDNAKNTVYLQMNSLKPEDTAVYYCDADYSYRHYEYDYWGQGTQVTVSS	low polyreactivity
QVQLVESGGGLVQAGGSLRLSCAASGSTIRKNALGWSRQAPGKEREWVADIRRGGGTNYADSVKGRFTISRDNAKNTVYLQMNSLKPEDTAVYSCNTDILYYGRSKAPFYYCGQGTQVTVSS	high polyreactivity
QVQLVESGGGLVQAGGSLRLSCAASGSTIRSNAMGWYRQAPGKERELVAAITSGGSTYYAESVKGRFTISRDNAKNTVYLQMNSLKPEDTAVYYCAVRYYRRRYDYWGQGTQVTVSS	low polyreactivity
QVQLVESGGGLVQAGGSLRLSCAASGSTIRSYAMGWYRQATRKERELVARIAYSSGRTYYADSVKGRFTISRDNAKNTVYLQMNSLKPEDTAVYYCAVRGYGYGYDYWGQGTQVTVSS	high polyreactivity
QVQLVESGGGLVQAGGSLRLSCAASGSTISFYAMGWYRQAPGKERELVAAISFRGGRTYYADSVKGRFTISRDNAKNTVYLQMYSLKPEDTAVYYCAAVWYYGHARYDYWGQGTQVTVSS	high polyreactivity
QVQLVESGGGLVQAGGSLRLSCAASGSTISFYAMGWYRQAPGKERELVAAISRSGGSTFYADSVKGRFTISRDNAKNTVYLQMNSLKPEDTAVYYCAAYGGMQSRYYYWGQGTQVTVSS	high polyreactivity
QVQLVESGGGLVQAGGSLRLSCAASGSTISPYAMGWYRQAPGKEREFVAAISRSGGSTYYADSVKVRFTISRDNAKNTVYLQMNSLKPEDTAVYYCARRYARITPVYPPLNYWGQGTQVTVSS	high polyreactivity
QVQLVESGGGLVQAGGSLRLSCAASGSTISRNAMGWYRQAPGKERELVAAITSKGDSTYYADSVKGRFTISRDNAKNTVYLQMNSLKPEDTAVYYCAAVRRGYKYDYWGQGTQVTVSS	low polyreactivity
QVQLVESGGGLVQAGGSLRLSCAASGSTISRYAMGWYRHAPGKERELVAAISWNGGDTYYADSVKGRFTISRDYAKNTVFLQMNSLKPEDTAVYYCNTPRRITRAGYWAGSRYNYWGQGTQVTVSS	high polyreactivity
QVQLVESGGGLVQAGGSLRLSCAASGSTISRYAMGWYRQAPGKEREFVAAISWRGGSTYYADSVKGRFTISRDNAKNTVYLQLNSLKPEDTAVYYCNADYRYARKGHYGKFGYWGQGTQVNVSS	high polyreactivity

Sequence	polyreactivity (PSR sort gate)
QVQLVESGGGLVQAGGSLRLSCAASGSTITYYAMGWYRQAPGKERELVAAISGSGRTHYADSVKGRFTISRDNAKNTVYLQMNSLKPEDTAVYDCNARQYTYNYAFTRCKYDYWGQGTQVTVSS	high polyreactivity
QVQLVESGGGLVQAGGSLRLSCAASGSTIVGYTMGWYRQAPGKERELVAAISRGGGSTYYADSVKGRFTISRDNAKNTVYLQMNSLKPEDTAVYYCNAYTYNRYYWGQGTQVTVSS	high polyreactivity
QVQLVESGGGLVQAGGSLRLSCAASGSTIVIYTMGWYRQAPGKERELVAAISQSGGRTYYADSVKGRFTISRDNSKNTVYLQMNSLKPEDTAVYYCAATWGKHYGYWGQGTQVTVSS	high polyreactivity
QVQLVESGGGLVQAGGSLRLSCAASGSTIVVNAMGWSRQAPGKERELVASISWTTGSTYYADSVKGRFTISRDNAKNTVFLQMNSLKPEDTAVYYCAADILPRYSQFDYWGQGTQVTVSS	low polyreactivity
QVQLVESGGGLVQAGGSLRLSCAASGSTIVYYAMGWYRQAPGKERELVARITWSGGRTYADSVKGRFTISRDNAKNTVYLQMNSLKPEDTAVYYCNADPGDNTTEYDYWGQGTQVTVSS	low polyreactivity
QVQLVESGGGLVQAGGSLRLSCAASGSTIYINGMGWYRQAAGKERELVAVISKRGGTTYYADSVKGRFTISRDNAKNTVYLQMNSLKPEDTAVYYCADRPYYWGQGTQVTVSS	high polyreactivity
QVQLVESGGGLVQAGGSLRLSCAASGSTIYLYAMGWSRPAPGKERVLVAAIRGRGGRTYYADSVKGRFTISSDNAKNTVYLKMNSLKPEDTAVYYCNADVYAYYRATTRFDYWGQGTQVTVSS	high polyreactivity
QVQLVESGGGLVQAGGSLRLSCAASGSTLAIYAKGWYRQAPGKERELVAAISGGGSTYADSVKGRFTISRDNAKNTVYLQMNSLKPEDTAVYYCNADGWGDRFWSNFRFDYWGQGTQVTVSS	low polyreactivity
QVQLVESGGGLVQAGGSLRLSCAASGSTLALNAIGWYRQAPGKEREFVADISWSGGDTYYADSVKGRFTISRDNAKNTVYLQMNILKPEDTAVYYCATDFSYQFQALEDDYWGQGTQVTVSS	low polyreactivity
QVQLVESGGGLVQAGGSLRLSCAASGSTLALYTMGWYIQAPGKERELVAAISKNGGRTYYADSVKGRFRISRDNAMNTVYLQMNSLKPEDTAVYYCAAASGSYRGYDYWGQCTQVTVSS	high polyreactivity
QVQLVESGGGLVQAGGSLRLSCAASGSTLARYAMGWYRQAPGKERELVAAISSDGRTYYADSVKGRFTISRDNAKNTVYLQIYSLKPEDTAVYYCATLRPYAYPQYDSWGQGTQVTVSS	high polyreactivity
QVQLVESGGGLVQAGGSLRLSCAASGSTLDGYGMRWYRQAPGKERELVAVITIGGGRTYYADSVKGRFTISRDNAKNTVYLQMNSLKPEDTAVSYCAAKGWRRYYIGDYWGQGTQVTVSS	high polyreactivity
QVQLVESGGGLVQAGGSLRLSCAASGSTLDSYAMGSYRQAPGKERELVAAISGSGGSTYYADSVKGRFTISRDNAKNTVYLEMNSLKPEDTAVYYCDTDYSTQTLGYWYDYWGQGTQVSVSS	low polyreactivity
QVQLVESGGGLVQAGGSLRLSCAASGSTLFYAMGWYRQAPGKERELVAAISWSGGSTRYADSVKGRFTISRDNAKNTVYLQMNSLKPEDTAVYYCNTYTKHTGYYWKYDYWGQGTQVTVSS	low polyreactivity
QVQLVESGGGLVQAGGSLRLSCAASGSTLGDNGMGWYIQAPGKERELVAAITIGGSTTYADSVKGRFTISRDNAKNTVYLQMNSLKPEDTAVYYCAADQQARDQYSDWTEYDYWGQGTQVNVSS	low polyreactivity
QVQLVESGGGLVQAGGSLRLSCAASGSTLGPYAMGWYRQAPGKERELVATINSSGSTNYADSVKGRFTISRDNAKNPVYLQMNSLKPEDTAVYYCATLHYYYWYDYWGQGTQVTVSS	low polyreactivity
QVQLVESGGGLVQAGGSLRLSCAASGSTLGRYAMGWYRQAPGKERELVASITWSDDSTYYADSVKGRFTISRDNAKNTVYLQMNSLKPEDTAVYYCAAAGNLYTYRFYYWGQGTQVTVSS	low polyreactivity
QVQLVESGGGLVQAGGSLRLSCAASGSTLGVYAMGWYRQAPGKERELVAAITIGGSTNFADSVKGRFTISRDNAKNTVYLQLNSLKPEDTAVYYCNAYYYWEGHGYTLLSYYYWGQGTQVTVSS	low polyreactivity
QVQLVESGGGLVQAGGSLRLSCAASGSTLGWYGMGWSRQAPGKERELVAAIDSGGNTYADSVKGRFTISRDNAKNTVYLQMNSLKPEDTAVYYCAVDGGEFSSYGYWGQGTQVTVSS	low polyreactivity
QVQLVESGGGLVQAGGSLRLSCAASGSTLGYYAMGWYRQAPGIVRELVAAISWSGGRTYYADSVKGRFTISRDYAKNTVYLQMKSLKPEDTAVYYCNALYRTHYTGSVYYSWGQGTQVSVSS	high polyreactivity
